Data from patent US20120094935A1.

Legend:
[1] = target: N-terminally His-tagged form of human TNFα (residues 6-157, numbered as in PDB entry 1TNF), soluble TNFα trimer (human) (UniProt P01375); assay: crystal structure, SC program in CCP4
[2] = target: N-terminally His-tagged form of human TNFα (residues 6-157, numbered as in PDB entry 1TNF), soluble TNFα trimer (human) (UniProt P01375); assay: crystal structure, AREAIMOL with 1.4 Å probe

UniProt P01375, sequence (P01375 other isoform, or with tags, fused parts or gaps limits assumed): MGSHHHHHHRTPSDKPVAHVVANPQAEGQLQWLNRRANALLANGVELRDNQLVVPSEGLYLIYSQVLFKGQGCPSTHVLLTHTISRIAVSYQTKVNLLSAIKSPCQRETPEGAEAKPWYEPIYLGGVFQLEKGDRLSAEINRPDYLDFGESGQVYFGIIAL

C-terminally His-tagged version of Yaba-like disease virus (YLDV) 2L lacking six C-terminal residues
shape complementarity index SC [1]: 0.72
buried surface area contributed by 2L [2]: 1030 Å^2
total buried surface area at the 2L-TNFα interface [2]: 2060 Å^2
